For the experiment, the target named is T1, GRP78 (UniProt P11021 19-654).
T1 construct: Endogenous protein of PC-9 cells
In words: cross-immunoprecipitation. The protocol:
FIGS. 6A-6B show A) immunoprecipitation with GR 6A04. Boxed area was excised for mass spectrometry. B) Mass spectrometry analysis of excised region identified the top 5 putative antigens after removal of non-specific hits found in the same region in the Column Control lane. […] The antigen identity was then validated by a pull-down with commercial antibodies against the target, and a cross-probe of the immunoprecipitated products with GR 6A04, and vice-versa. GRP78 was tested by cross-IP and ruled out as possible antigen for GR 6A04.
Immunoprecipitation (IP) was conducted using the automated Phynexus MEA system (Phynexus Inc., USA). GR6A04 was captured onto Protein G PhyTip columns containing 5 ul of resin bed. The column was then washed with PBS to remove unbound proteins, and PC-9 membrane protein extract was introduced to bind to GR6A04 that has been captured on the column. The column was then washed with Wash Buffer II (140 mM NaCl, pH7.4) before elution at low pH with Elution Buffer (200 mM NaH2PO4/140 mM NaCl pH 2.5) and neutralized immediately with 1 M Tris-Cl pH 9.0. The IP product is then subjected to analysis by Western blot.

Data on one molecule can be found in patent US20250230236A1 (SINGAPORE HEALTH SERVICES PTE, published 2025).

T1 sequence (P11021 19-654 limits assumed): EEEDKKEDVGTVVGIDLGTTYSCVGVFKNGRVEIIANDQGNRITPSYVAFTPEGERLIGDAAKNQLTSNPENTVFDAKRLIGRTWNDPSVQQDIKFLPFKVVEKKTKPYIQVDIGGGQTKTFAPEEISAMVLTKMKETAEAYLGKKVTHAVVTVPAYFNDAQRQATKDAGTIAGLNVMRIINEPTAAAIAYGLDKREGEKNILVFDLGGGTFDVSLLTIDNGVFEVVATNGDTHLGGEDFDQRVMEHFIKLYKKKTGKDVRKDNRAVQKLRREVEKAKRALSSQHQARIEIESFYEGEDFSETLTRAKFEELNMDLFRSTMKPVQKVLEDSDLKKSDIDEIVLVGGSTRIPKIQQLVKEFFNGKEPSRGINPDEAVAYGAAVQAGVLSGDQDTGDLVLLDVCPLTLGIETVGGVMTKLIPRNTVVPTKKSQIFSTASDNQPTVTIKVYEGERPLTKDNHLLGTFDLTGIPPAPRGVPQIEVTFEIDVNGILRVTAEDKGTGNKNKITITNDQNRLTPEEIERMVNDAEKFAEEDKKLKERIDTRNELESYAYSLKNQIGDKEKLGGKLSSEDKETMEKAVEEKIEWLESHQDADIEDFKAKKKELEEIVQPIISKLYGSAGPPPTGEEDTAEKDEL

B1: GR6A04 monoclonal antibody (antibody, mouse IgG1, V domains shown)
VH: SGPELVKPGASVKMSCKASGNTFTSYVMHWVKQKPGQGLEWIGYINPYNDGTKYNEKFKGKATLTSDKSSSTAYMELSSLTSEDSAVYYCARSTARATPYFYAMDYWGQGTSVTVSS
VL: DILMTQSPSSLAVTAGEKVTMRCKSSQSLLWSVNQNSYLSWYQLKQGQPPKLLLYGASIRESWVPDRFTGSGSGTDFTLTISNVHVEDLAVYYCQHNHGSFLPYTFGGGTKLEIK
notes: also called mAb GR 6A04
Turning to B1, the binding result was “no binding”.
